Laboratory results published in US20220323495A1 (NATIONAL RESEARCH COUNCIL OF CANADA, published 2022).

T1: human EGFRvIII amino acid residues 15 to 37, yeast-displayed (human, not fully specified)
T1 construct: also called EGFRvIII 15-37 fragment; aa 15-37
T1 peptide: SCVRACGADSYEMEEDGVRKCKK

T2: EGFRvIII amino acid residues 15 to 37 with Cys16 to Ala mutation, yeast-displayed (human, not fully specified)
T2 construct: The entry already carries the mutation
T2 peptide: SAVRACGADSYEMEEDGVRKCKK

T3: EGFRvIII amino acid residues 15 to 37 with Lys37 to Ala mutation, yeast-displayed (human, not fully specified)
T3 construct: The entry already carries the mutation
T3 peptide: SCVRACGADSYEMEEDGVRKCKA

T4: EGFRvIII amino acid residues 15 to 37 with Asp30 to Ala mutation, yeast-displayed (human, not fully specified)
T4 construct: The entry already carries the mutation
T4 peptide: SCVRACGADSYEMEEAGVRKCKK

B1: F265-5B7 anti-EGFRvIII monoclonal antibody (antibody, V domains shown)
VH: QIQLVQSGPELKKPGETVMISCKASGYSFTNYGMNWVKQAPEKDLKWMGWINTYTGESRYVDEFKGRFAFSLETSVSIVYLKINNLKNEDMATYFCARGPNFDVWGTGTTVTVSS
VL: not shown
notes: Mouse hybridoma IgG, tested as supernatant or Protein G purified mAb; also called 5B7-2
B2: F269-3D12 anti-EGFRvIII monoclonal antibody (antibody, V domains shown)
VH: EVQLQQSGPELVKPGSSVRISCKASGYTFTDYNMDWVKQSHGKSLEWIGTINPNNGGTSYNQKFKGKATLTVDKSSSTAYMELRSLTSEDSAVYYCARVRQLGLWFAYWGQGTLVTVSA
VL: EIVLTQSPALMAASPGEKVTITCSVSSSISSSNLHWYQQKSETSPKPWIYGTSNLASGVPVRFSGSGSGTSYSLTISSMEAEDAATYYCQQWSSYPLTFGSGTKLEIK
notes: Mouse hybridoma IgG, tested as supernatant or Protein G purified mAb; also called 3D12-2

Assays:
[1] = target: T1, human EGFRvIII amino acid residues 15 …; assay: yeast display; smallest EGFRvIII fragment the antibody was able to bind
Text: (§1) Assessment of the binding of anti-EGFRvIII monoclonal antibodies to the fusion proteins expressed on yeast cell surface was done by flow cytometry analysis. Yeast cells were labeled with both the anti-EGFRvIII monoclonal antibody and chicken anti-Myc antibody the latter being used to monitor the level of expression of the fusion protein. Following a wash step, binding of the primary antibodies is probed by a two-color indirect fluorescence labeling using a specific mouse and chicken secondary antibodies for each of the primary antibody respectively.

[2] = target: T5, recombinant human wild-type EGFR protein, native (human, UniProt P00533 25-645); assay: ELISA on coated native recombinant antigen; Exp 1, mAb supernatant
T5 construct: Recombinant protein used as ELISA coat; also called EGFRwt; wt EGFR
Protocol: (§2) Pre- and post-immune sera titers of animals were assessed by ELISA on recombinant EGFRvIII protein. Unless otherwise stated, all incubations were performed at room temperature. Briefly, half-area 96-well plates (Costar #3690) were coated with 25 μl per well of immunogen at 5 μg/ml in PBS and incubated overnight at 4° C. Microplates were washed three times in PBS and blocked for 30 min with PBS containing 1% bovine serum albumin (BSA, Sigma Cat#A7030). Blocking buffer was removed and 25 μl of serial dilutions of sera samples were added. After a 2-h incubation, microplates were washed 4 times with PBS-TWEEN™ 20 0.05% and 25 μl of a 1/5,000 dilution of alkaline phosphatase conjugated F(ab′)′₂ goat anti-mouse IgG (H+L, #115-056-062, Jackson Immunoresearch, Cedarlane, Burlington, ON) in blocking buffer was added. After a 1-h incubation, microplates were washed 4 times and 25 μl of p-nitrophenyl phosphate (pNPP) substrate (Sigma-Aldrich Canada Co., Oakville, ON) at 1 mg/ml in carbonate buffer at pH 9.6 was added and further incubated for 30 min. Absorbance was read at 405 nm using a SpectraMax 340 PC plate reader (Molecular Devices, Sunnyvale, Calif.).
(§3) To evaluate if monoclonal antibodies bind to a conformational epitope, an ELISA analysis on native and denatured recombinant human wild-type EGFR and EGFRvIII proteins were performed. […] Antigens at 1-2 mg/ml were denatured by incubation at 95° C. for 5 min in PBS containing DTT at 40 mM final concentration. They were then incubated on ice for 5 min and diluted at their final coating concentration for ELISA purpose.
(§4) mAbs were purified using HiTrap ProteinG HP 1 mL columns GE Healthcare cat no. 17-0404-01 and desalted using Zeba-spin desalting columns 5 mL (Pierce) pre-equilibrated in PBS and filter sterilized through […] membrane (Millipore). The final concentration of the antibody solutions was determined using a Nano-drop 2000 (ThermoScientific), using IgG as sample type. ELISA was performed as described above (serum titer determination) using 25 μl of mAb supernatant (Exp 1) or purified mAb at 1 μg/ml (Exp 2).

[3] = target: T6, recombinant human EGFRvIII protein, native (human, UniProt P00533 298-623); assay: as above
T6 construct: Recombinant extracellular domain used as immunogen and ELISA coat; also called EGFRvIII Native
Protocol: as §2, §3, §4

[4] = target: T5, recombinant human wild-type EGFR …; assay: ELISA on coated native recombinant antigen; Exp 2, purified mAb 1 µg/ml
Protocol: as §2, §3, §4

[5] = target: T6, recombinant human EGFRvIII protein, …; assay: as above
Protocol: as §2, §3, §4

[6] = target: T7, recombinant human wild-type EGFR protein, denatured (human, UniProt P00533 25-645); assay: ELISA on coated denatured recombinant antigen; Exp 1, mAb supernatant
T7 construct: Same protein as m11 after denaturation (95 °C for 5 min in PBS with 40 mM DTT); also called EGFRwt Denatured
Protocol: as §2, §3, §4

[7] = target: T8, recombinant human EGFRvIII protein, denatured (human, UniProt P00533 298-623); assay: as above
T8 construct: Same protein as m9 after denaturation (95 °C for 5 min in PBS with 40 mM DTT); also called EGFRvIII Denatured
Protocol: as §2, §3, §4

[8] = target: T2, EGFRvIII amino acid residues 15 to 37 …; assay: flow cytometry on yeast displaying the Ala-mutated 15-37 fragment; normalized to Myc-tag; wild-type fragment = 100%
Text: as §1
(§5) To further characterize mAb epitopes within the EGFRvIII 15-37 region, an alanine scan of this region was performed, and modified fragments were expressed at the surface of the yeast. […] The resulting DNAs were expressed at the surface of the yeast and each anti-EGFRvIII mAbs was tested on the corresponding yeast mutant strain by flow cytometry analysis. The original Ala19 and Ala22 were not mutated. Thus, this assay determined the contribution of each amino acid(s) in mAb binding in comparison to the original wild-type fragment (SEQ ID NO:5) which is attributed the value of 100%.

[9] = target: T3, EGFRvIII amino acid residues 15 to 37 …; assay: as above
Text: as §1, §5

[10] = target: T4, EGFRvIII amino acid residues 15 to 37 …; assay: as above
Text: as §1, §5

[11] = target: T7, recombinant human wild-type EGFR …; assay: ELISA on coated denatured recombinant antigen; Exp 2, purified mAb 1 µg/ml
Protocol: as §2, §3, §4

[12] = target: T8, recombinant human EGFRvIII protein, …; assay: as above
Protocol: as §2, §3, §4

Row | Binder | binding result [1] | ELISA absorbance (405 nm) [2] [A405] | ELISA absorbance (405 nm) [3] [A405] | ELISA absorbance (405 nm) [4] [A405] | ELISA absorbance (405 nm) [5] [A405] | ELISA absorbance (405 nm) [6] [A405] | ELISA absorbance (405 nm) [7] [A405] | % of binding compared to the wild-type sequence [8] [%] | % of binding compared to the wild-type sequence [9] [%] | % of binding compared to the wild-type sequence [10] [%] | ELISA absorbance (405 nm) [11] [A405] | ELISA absorbance (405 nm) [12] [A405]
1 | B1 | binds | 0.008 | 1.14 | 0.002 | 0.874 | 0.046 | 1.67 | 240 | 143 | 106 | 0 | 0.623
2 | B2 | binds | 0.095 | 1.17 | 0.011 | 1.12 | 0.045 | 1.86 | 171 | 162 | 78.5 | 0.001 | 0.517
